{
  "source": "paper PMC3594540",
  "about": "(Nature structural & molecular biology, 2013)",
  "binders": {"B1": {"name": "murine Gαq (residues 7–359), biotinylated for bead binding (natural protein)", "chain": "MACCLSEEAKEARRINDEIERQLRRDKRDARRELKLLLLGTGESGKSTFIKQMRIIHGSGYSDEDKRGFTKLVYQNIFTAMQAMIRAMDTLKIPYKYEHNKAHAQLVREVDVEKVSAFENPYVDAIKSLWNDPGIQECYDRRREYQLSDSTKYYLNDLDRVADPSYLPTQQDVLRVRVPTTGIIEYPFDLQSVIFRMVDVGGQRSERRKWIHCFENVTSIMFLVALSEYDQVLVESDNENRMEESKALFRTIITYPWFQNSSVILFLNKKDLLEEKIMYSHLVDYFPEYDGPQRDAQAAREFILKMFVDLNPDSDKIIYSHFTCATDTENIRFVFAAVKDTILQLNLKEYNLV"}},
  "assay_in_all_cases": "cell-based or functional assay",
  "key": {"[1]": {"molecular_target": "T1, PLCβ3 I1129E V1133E I1136E triple mutant (human, UniProt Q01970)", "T1 chain": "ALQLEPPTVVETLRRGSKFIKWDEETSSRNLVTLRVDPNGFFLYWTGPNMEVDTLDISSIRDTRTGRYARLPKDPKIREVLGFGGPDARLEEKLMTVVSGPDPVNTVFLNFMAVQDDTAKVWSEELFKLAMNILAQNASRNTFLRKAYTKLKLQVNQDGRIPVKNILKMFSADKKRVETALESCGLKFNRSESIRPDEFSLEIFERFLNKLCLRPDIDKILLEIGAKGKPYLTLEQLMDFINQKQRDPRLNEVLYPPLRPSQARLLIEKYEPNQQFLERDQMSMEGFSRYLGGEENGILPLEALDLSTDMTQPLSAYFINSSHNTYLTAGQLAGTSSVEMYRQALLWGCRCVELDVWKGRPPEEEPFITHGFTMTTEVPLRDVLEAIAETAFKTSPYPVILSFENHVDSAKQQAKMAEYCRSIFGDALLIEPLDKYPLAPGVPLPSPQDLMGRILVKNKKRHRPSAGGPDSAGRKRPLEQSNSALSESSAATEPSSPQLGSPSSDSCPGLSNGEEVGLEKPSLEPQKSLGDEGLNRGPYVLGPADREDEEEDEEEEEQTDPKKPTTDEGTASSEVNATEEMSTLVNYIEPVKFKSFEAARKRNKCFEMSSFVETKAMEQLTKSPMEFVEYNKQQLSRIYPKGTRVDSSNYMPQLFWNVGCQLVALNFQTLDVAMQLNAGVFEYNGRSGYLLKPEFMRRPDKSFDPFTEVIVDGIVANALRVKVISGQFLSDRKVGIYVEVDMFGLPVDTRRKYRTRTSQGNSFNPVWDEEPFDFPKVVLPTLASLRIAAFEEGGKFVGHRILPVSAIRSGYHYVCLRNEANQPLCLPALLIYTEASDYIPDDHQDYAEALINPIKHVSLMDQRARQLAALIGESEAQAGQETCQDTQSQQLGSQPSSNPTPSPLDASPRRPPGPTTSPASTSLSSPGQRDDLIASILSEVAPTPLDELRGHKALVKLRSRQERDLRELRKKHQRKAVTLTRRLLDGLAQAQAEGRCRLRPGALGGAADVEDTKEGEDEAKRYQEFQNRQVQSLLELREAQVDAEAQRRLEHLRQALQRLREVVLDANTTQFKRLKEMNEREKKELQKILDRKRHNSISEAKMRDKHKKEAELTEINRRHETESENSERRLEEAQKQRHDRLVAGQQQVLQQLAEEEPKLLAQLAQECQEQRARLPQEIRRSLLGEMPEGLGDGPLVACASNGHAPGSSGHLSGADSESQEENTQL"}, "PLCβ3 L876A": {"molecular_target": "PLCβ3 L876A (human, UniProt Q01970 10-1234, L876A)"}, "PLCβ3 L876A EEE": {"molecular_target": "T2, PLCβ3 L876A EEE (human, UniProt Q01970)", "T2 chain": "T1 chain with L867A"}},
  "note": "Substitutions are numbered along the chain they refer to.",
  "data": [
    {"binder": "B1", "values": [
      {"measurement": "EC50 of Gαq-stimulated PIP2 hydrolysis ([3H]-IP3 release from liposomes)", "setting": "[1]", "value": 280, "unit": "nM"},
      {"measurement": "Max specific activity of Gαq-stimulated PIP2 hydrolysis (liposomes)", "setting": "[1]", "value": 1900, "unit": "nmol IP3/min/nmol PLCβ3"},
      {"measurement": "EC50 of Gαq-stimulated PIP2 hydrolysis ([3H]-IP3 release from liposomes)", "setting": "PLCβ3 L876A", "value": 19, "unit": "nM"},
      {"measurement": "Max specific activity of Gαq-stimulated PIP2 hydrolysis (liposomes)", "setting": "PLCβ3 L876A", "value": 6500, "unit": "nmol IP3/min/nmol PLCβ3"},
      {"measurement": "EC50 of Gαq-stimulated PIP2 hydrolysis ([3H]-IP3 release from liposomes)", "setting": "PLCβ3 L876A EEE", "value": 32, "unit": "nM"},
      {"measurement": "Max specific activity of Gαq-stimulated PIP2 hydrolysis (liposomes)", "setting": "PLCβ3 L876A EEE", "value": 3900, "unit": "nmol IP3/min/nmol PLCβ3"}
    ]}
  ]
}
